The text below walks through data of publication PMC12304850, “Interfacing B‐DNA and DNA Mimic Foldamers”.

Data set [1] deals with T1, SAP1 (UniProt P28324 1-93).
T1 sequence: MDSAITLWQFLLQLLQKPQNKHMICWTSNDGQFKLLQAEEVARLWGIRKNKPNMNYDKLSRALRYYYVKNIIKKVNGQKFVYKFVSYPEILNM
Put plainly: BLI; BLI on streptavidin biosensors; buffer with NaCl (concentration not in material), 0.01 mM EDTA, 0.05% Tween 20; pH and temperature not in material. The note with it: protein: recombinant, label: biotin.

For data set [2], the target named is PU.1 (UniProt P17947 165-270). Described as above.

B1: 27 (dsDNA)
DNA 1: GACAGCATGTG
DNA 2: CACATGCTGTC
Broadly, the Kd is the constant that tells how readily two partners part at equilibrium. With B1, in data set [1] (duplex), the binding result was “no binding”. The Kd in data set [2] amounted to 1.6 µM.

B2: 26 (dsDNA)
DNA 1: GACAGGATGTG
DNA 2: CACATCCTGTC
As for B2, the Kd is 1.08 ± 0.006 µM in data set [1] (11-bp duplex, hybridized on immobilized ssDNA) and 0.33 µM in data set [2].
